Experimental findings from patent US20220372138A1 (IOMX THERAPEUTICS, published 2022) are described below.

Assay [1] has as its target T1, human IGSF11 (VSIG3) expressed on cells (human, UniProt Q5DX21 23-431).
T1 sequence: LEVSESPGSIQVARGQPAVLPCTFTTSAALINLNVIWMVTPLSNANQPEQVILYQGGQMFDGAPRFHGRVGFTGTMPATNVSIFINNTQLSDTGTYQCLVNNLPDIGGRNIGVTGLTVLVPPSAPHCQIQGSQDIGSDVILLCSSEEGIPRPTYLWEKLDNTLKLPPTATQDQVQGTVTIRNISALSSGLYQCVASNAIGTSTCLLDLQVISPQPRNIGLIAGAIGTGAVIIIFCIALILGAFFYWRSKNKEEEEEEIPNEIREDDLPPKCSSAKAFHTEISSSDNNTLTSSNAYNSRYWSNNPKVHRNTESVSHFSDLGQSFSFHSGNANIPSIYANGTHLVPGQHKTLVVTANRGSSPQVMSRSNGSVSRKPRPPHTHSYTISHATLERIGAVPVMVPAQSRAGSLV
In words: IgG FACS Colo741.
Source text: (§1) Unbound antibodies were removed by washing the cells three time with FACS buffer. Bound antibodies were detected with a mouse anti-human IgG antibody conjugated with AlexaFluor647.

Assay [2] has as its target T2, murine IGSF11 expressed on cells (mouse, UniProt P0C673 23-428).
T2 construct: MC38-IGSF11, CT26-IGSF11, MC38-wt (naturally expresses murine IGSF11)
T2 sequence: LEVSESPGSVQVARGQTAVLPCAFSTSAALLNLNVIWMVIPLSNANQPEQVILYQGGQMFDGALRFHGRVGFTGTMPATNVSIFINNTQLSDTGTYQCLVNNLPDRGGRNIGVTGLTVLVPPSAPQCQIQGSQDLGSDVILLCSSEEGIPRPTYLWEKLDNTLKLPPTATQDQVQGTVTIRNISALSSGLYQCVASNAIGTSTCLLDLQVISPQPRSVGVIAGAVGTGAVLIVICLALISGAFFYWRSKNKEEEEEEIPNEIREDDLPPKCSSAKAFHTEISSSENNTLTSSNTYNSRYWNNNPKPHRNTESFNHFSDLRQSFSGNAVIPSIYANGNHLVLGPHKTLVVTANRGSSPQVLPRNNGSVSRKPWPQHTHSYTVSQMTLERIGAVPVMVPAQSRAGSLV
Nature of the assay: IgG FACS MC38-IGSF11.
Source text: as §1

Assay [3] addresses T1, human IGSF11 (VSIG3) expressed on cells. Nature of the assay: IgG FACS MDA-MB-231-IGSF11.
Source text: as §1
Assay [4] addresses T3, extracellular domain (ECD) of human IGSF11 (VSIG3), recombinant (human, UniProt Q5DX21 23-241).
T3 construct: biotinylated where captured on streptavidin; tags of the reagent not always stated; also called IGSF11 (ECD domain); ECD-IGSF11
T3 sequence: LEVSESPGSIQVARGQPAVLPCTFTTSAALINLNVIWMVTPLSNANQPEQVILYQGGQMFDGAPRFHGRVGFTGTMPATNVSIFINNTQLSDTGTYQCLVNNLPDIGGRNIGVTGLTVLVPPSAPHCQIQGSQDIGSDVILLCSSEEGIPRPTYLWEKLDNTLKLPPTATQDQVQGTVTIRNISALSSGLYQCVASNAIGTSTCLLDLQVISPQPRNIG
In words: KinExA, Fab as CBP 80 and 800 pM, n-curve. (Kinetic exclusion samples the free partner from a solution-phase mixture.)
Procedure: (§2) Solution-based binding affinities were determined using the Kinetic Exclusion Assay (KinExA) 4000 system as described below, where binding partners were combined and allowed to reach equilibrium prior to measurement.
(§3) Briefly, anti-IGSF11 ABPs of the invention as Fabs were used as Constant Binding Partner (CBP) and human recombinant IGSF11 ECD was used as Titrant. After reaching equilibrium, free CBP were detected using PMMA beads coated with IGSF11 ECD or IGSF11 IgC2-domain Fc-fusion protein and an anti-human F(ab′)2 antibody conjugated with AlexaFluor647. […] The CBP was incubated with different Titrant concentrations for 16 h (or 72-90 h) to reach equilibrium. The equilibrium binding curves of different CBP concentrations were measured in duplicates and drift correction was applied. The n-curve analysis tool within the KinExA Pro Software version 4.4.26 was applied to obtain one KD value per set of binding curves by finding the best fit of a 1:1 binding model to the data.

Assay [5] concerns the target T3, extracellular domain (ECD) of human …. Nature of the assay: KinExA, Fab as CBP 15 pM, single binding curve.
Procedure: as §2, §3

B1: D-222 (IgG format) (antibody, V domains shown)
VH: EVQLVESGGGLVKPGGSLRLSCAASGFTFSHAWISWVRQAPGKGLEWVGQIKGGPGSGGTSYAEPVKGRFTISRDDSKNTLYLQMNSLKTEDTAVYYCARLGIYSGFDYWGQGTLVTVSS
VL: SYELTQPPSVSVSPGQTASITCSGDKLGDKYASWYQQKPGQSPVLVIYQDSKRPSGIPERFSGSNSGNTATLTISGTQAEDEADYYCHTYSHRPEIVVFGGGTKLTVL
A word on the EC50: it is the concentration that produces a half-maximal response. A lower EC50 goes with an effect from little substance. Consider B1, for which the EC50 in assay [1], in assay [2] and in assay [3] was < 0.5 nM throughout.

B2: D-222 (Fab, KinExA constant binding partner) (Fab, V domains shown)
VH: EVQLVESGGGLVKPGGSLRLSCAASGFTFSHAWISWVRQAPGKGLEWVGQIKGGPGSGGTSYAEPVKGRFTISRDDSKNTLYLQMNSLKTEDTAVYYCARLGIYSGFDYWGQGTLVTVSS
VL: SYELTQPPSVSVSPGQTASITCSGDKLGDKYASWYQQKPGQSPVLVIYQDSKRPSGIPERFSGSNSGNTATLTISGTQAEDEADYYCHTYSHRPEIVVFGGGTKLTVL
notes: Fab
A word on the Kd: it is a measure of binding affinity in units of concentration. Turning to B2, the Kd in assay [4] is < 0.15 nM.

B3: D-114 (Fab, KinExA constant binding partner) (Fab, V domains shown)
VH: EVQLLESGGGLVQPGGSLRLSCAASGFTFQFSALSWVRQAPGKGLEWVSAISYGGGSKYYADSVKGRFTISRDNSKNTLYLQMNSLRAEDTAVYYCARDSRDAYGVAFDLWGQGTMVTVSS
VL: ASVLTQPPSVSAAPGQKVTISCSGSSSNIGNNYVSWYQQLPGTAPKLLIYDNNKRPSGIPDRFSGSKSGTSATLGITGLQAEDEADYYCLSYKLSPGAYVFGGGTKLTVL
notes: Fab
For B3, the Kd in assay [5] was < 0.01 nM.
